Experiment: SEC

## CD95L-IZ-His (His8-TEV-Cys-IZ-CD95L (137-281), secreted form)
  percent trimers in solution (Gaussian fit of the SEC curve): occurs in a trimeric state (i.e. 62%)

Reference: publication doi:10.1101/2024.10.12.618001
